Biological target: the molecule itself
Test: SEC + native MS

B1: BX1 from Zea mays (zmBX1), wild type (enzyme)
chain: SRPVSDTMAALMAKGKTAFIPYITAGDPDLATTAEALRLLDGCGADVIELGVPCSDPYIDGPIIQASVARALASGTTMDAVLEMLREVTPELSCPVVLLSYYKPIMSRSLAEMKEAGVHGLIVPDLPYVAAHSLWSEAKNNNLELVLLTTPAIPEDRMKEITKASEGFVYLVSVNGVTGPRANVNPRVESLIQEVKKVTNKPVAVGFGISKPEHVKQIAQWGADGVIIGSAMVRQLGEAASPKQGLRRLEEYARGMKNALP
stoichiometry N: 2
